Five molecules from patent JP2007530675A (dated 2007) can be followed below.

The target of experiment [1] is T1, hu25/mu75 chimeric CS1-Fc (human/mouse chimera; human, UniProt P01857-1 99-330 = IgG part, limits assumed).
T1 construct: domain: Fc
The experiment can be described thus: sandwich ELISA, captured chimeric CS1-Fc. For orientation: An ELISA detects its analyte on a solid surface through an enzyme-linked reagent.

Experiment [2] addresses T2, mu25/hu75 chimeric CS1-Fc (human/mouse chimera; human, UniProt P01857-1 99-330 = IgG part, limits assumed).
T2 construct: domain: Fc
The experiment can be described thus: sandwich ELISA, captured chimeric CS1-Fc.

The target of experiment [3] is T3, CS1 ECD-myc-GPI (human, UniProt Q9NQ25 23-226, GPI linkage at the C-terminus). The experiment can be described thus: cell-based or functional assay.
Experiment [4] deals with human CS1-Fc fusion protein (Biacore analyte) (human) (UniProt Q9NQ25). The experiment can be described thus: SPR (BIAcore 2000), antibody immobilised, CS1-Fc as analyte, bivalent analyte model. (In general: In SPR one partner is held on a chip, and binding of the other changes the refractive index at the surface.)
The target of experiment [5] is T4, CS1 ECD-Fcγ3 fusion protein (human, UniProt Q9NQ25 23-226).
T4 construct: also called CS1-γ3; CS1-Fc-γ3; not shown: constant region of human IgG3 (human Fc-γ3) from the vector
The experiment can be described thus: direct binding ELISA, plate coated with 1 μg/ml soluble human CS1-human Fcγ3 fusion protein.

Experiment [6] has as its target T3, CS1 ECD-myc-GPI. The experiment can be described thus: FACS on NSO-CS1 transfectants.
The target in experiment [7] is T4, CS1 ECD-Fcγ3 fusion protein. The experiment can be described thus: ELISA on CS1-γ3 fusion protein.
Experiment [8] concerns the target T5, human CS1-Fc fusion protein (Biacore analyte) (human, UniProt Q9NQ25 23-226, limits assumed).
T5 construct: kept apart; also called CS-Fc; not shown: Fc part
The experiment can be described thus: SPR (BIAcore 2000), antibody immobilised, CS1-Fc as analyte.

The target of experiment [9] is T6, full-length wild-type human CS1 (human, UniProt Q9NQ25 23-335).
T6 construct: Native CS1 on K562 and Daudi cells, myeloma and B-cell lines, tonsil/synovial and patient plasma cells; also called SLAMF7; 19A
The experiment can be described thus: FACS on K562 and Daudi cells.

T1 sequence (P01857 other isoform, or with tags, fused parts or gaps mutant limits assumed): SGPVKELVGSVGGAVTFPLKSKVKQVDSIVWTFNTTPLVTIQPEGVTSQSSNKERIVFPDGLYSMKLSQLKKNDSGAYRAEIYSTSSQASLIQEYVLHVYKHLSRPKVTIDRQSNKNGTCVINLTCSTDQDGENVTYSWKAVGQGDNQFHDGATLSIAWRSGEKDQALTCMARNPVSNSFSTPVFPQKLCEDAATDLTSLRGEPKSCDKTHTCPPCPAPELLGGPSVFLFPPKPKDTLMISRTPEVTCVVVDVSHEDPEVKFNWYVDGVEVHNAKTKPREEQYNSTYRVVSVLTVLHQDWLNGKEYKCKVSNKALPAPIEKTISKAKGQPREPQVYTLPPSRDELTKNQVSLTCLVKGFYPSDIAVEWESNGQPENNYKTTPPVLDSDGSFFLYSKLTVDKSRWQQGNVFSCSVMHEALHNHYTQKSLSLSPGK
T2 sequence (P01857 other isoform, or with tags, fused parts or gaps mutant limits assumed): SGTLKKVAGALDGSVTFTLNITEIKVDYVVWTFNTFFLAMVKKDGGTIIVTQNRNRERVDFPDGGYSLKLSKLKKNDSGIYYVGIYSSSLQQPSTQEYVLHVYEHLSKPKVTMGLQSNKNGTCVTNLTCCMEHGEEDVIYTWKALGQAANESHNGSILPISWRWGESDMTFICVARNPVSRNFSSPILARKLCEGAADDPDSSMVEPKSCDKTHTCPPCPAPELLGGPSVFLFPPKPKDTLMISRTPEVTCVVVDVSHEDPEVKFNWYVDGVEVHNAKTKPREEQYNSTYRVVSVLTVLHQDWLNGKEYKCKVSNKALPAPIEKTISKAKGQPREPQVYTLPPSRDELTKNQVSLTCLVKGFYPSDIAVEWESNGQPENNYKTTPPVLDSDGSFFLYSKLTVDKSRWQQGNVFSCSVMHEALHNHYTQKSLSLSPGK

B1: Luc69 (antibody, V domains shown)
VH: QVQLQQSGPELVKPGASVKISCKASGYAFSNSWMNWVKQRPGQGLEWIGRIYPGDGDTKSNGKFKGKATLTADKSSRAAYMQLSSLTSVDSAVYFCARSTMIMTGAMDYWGQGTSVTVSS
VL: DIVMTQSHKFMSTSVGDRVIITCKASQDVSTAVAWYQQKPGQSPKLLIYSASFRYTGVPDRFTGSGSGTDFTFTVSSVQAEDLAVYYCQQHYSTPPYTFGGGTKLEIK
notes: mouse anti-human CS1 monoclonal
In the case of B1, the binding result in [1] and in experiment [2] was “no binding (tested: 2 μg/ml)” in each case.

B2: Luc90 (antibody, V domains shown)
VH: QVQLQQPGAELVRPGASVKLSCKASGYSFTTYWMNWVKQRPGQGLEWIGMIHPSDSETRLNQKFKDKATLTVDKSSSTAYMQLSSPTSEDSAVYYCARSTMIATRAMDYWGQGTSVTVSS
VL: DIVMTQSQKSMSTSVGDRVSITCKASQDVITGVAWYQQKPGQSPKLLIYSASYRYTGVPDRFTGSGSGTDFTFTISNVQAEDLAVYYCQQHYSTPLTFGAGTKLELK
notes: mouse anti-human CS1 monoclonal, IgG2b; also called Luc90.H1; Luc90H1
In the case of B2, the “細胞傷害性(%) (ADCC, LDH release, PBMC effectors 20:1)” value with CS1 ECD-myc-GPI [3] was roughly 50%. In experiment [4], the fold higher binding affinity than Luc34.1 is 28 fold. For the same molecule, the fold higher binding affinity than Luc63.2 in experiment [4] was 5.5 fold. The binding result in experiment [1] and in experiment [2] was “no binding (tested: 2 μg/ml)” each time.

B3: HuLuc63 (antibody, human IgG1, V domains shown)
VH: EVQLVESGGGLVQPGGSLRLSCAASGFDFSRYWMSWVRQAPGKGLEWIGEINPDSSTINYAPSLKDKFIISRDNAKNSLYLQMNSLRAEDTAVYYCARPDGNYWYFDVWGQGTLVTVSS
VL: DIQMTQSPSSLSASVGDRVTITCKASQDVGIAVAWYQQKPGKVPKLLIYWASTRHTGVPDRFSGSGSGTDFTLTISSLQPEDVATYYCQQYSSYPYTFGQGTKVEIK
notes: human IgG1/κ, transiently expressed in 293-H cells; also called humanized Luc63
Usually EC50 stands for the midpoint of the concentration-response curve. The molecule B3 gave a concentration for a half-maximal effect (EC50) in experiment [5] of 0.0701 µg/mL.

B4: Luc34 (antibody, V domains shown)
VH: QVQLQQSGAELARPGASVKLSCKASGYTFTSYWMQWVKQRPGQGLEWIGAIYPGDGDTRYTQKFKGKATLTADKSSSTAYMQLSSLASEDSAVYYCARGKVYYGSNPFAYWGQGTLVTVSA
VL: DIQMTQSSSYLSVSLGGRVTITCKASDHINNWLAWYQQKPGNAPRLLISGATSLETGVPSRFSGSGSGKDYTLSITSLQTEDVATYYCQQYWSTPWTFGGGTKLEIK
notes: mouse anti-human CS1 monoclonal; also called Luc34.1
Take B4: the binding result in the experiment with CS1 ECD-myc-GPI [6] was “binds”; in experiment [7] it was “binds”; in [8], “binds”; in experiment [9], “binds”; in experiment [1], “no binding (tested: 2 μg/ml)”; in experiment [2], “no binding (tested: 2 μg/ml)”.

B5: Luc63 (antibody, V domains shown)
VH: EVKLLESGGGLVQPGGSLKLSCAASGFDFSRYWMSWVRQAPGKGLEWIGEINPDSSTINYTPSLKDKFIISRDNAKNTLYLQMSKVRSEDTALYYCARPDGNYWYFDVWGAGTTVTVSS
VL: DIVMTQSHKFMSTSVGDRVSITCKASQDVGIAVAWYQQKPGQSPKLLIYWASTRHTGVPDRFTGSGSGTDFTLTISNVQSEDLADYFCQQYSSYPYTFGGGTKLEIK
notes: mouse anti-human CS1 monoclonal, IgG2a; also called MuLuc63; muLuc63
On to B5, for which, in [5], it took 0.0661 µg/mL to reach a half-maximal effect (EC50).
